Values of other authors, collected in patent publication US9453050B2, “Compositions for treating glioma” (GLIA SP Z.O.O., priority 2011, dated 2016).

Legend:
[1] = biological target: T1, high affinity receptor (GM-CSFRα.βc complex) (Homo sapiens, UniProt P15509+P32927); details: VonFeldt et al.; cited from earlier work
T1 sequence (P15509 23-400): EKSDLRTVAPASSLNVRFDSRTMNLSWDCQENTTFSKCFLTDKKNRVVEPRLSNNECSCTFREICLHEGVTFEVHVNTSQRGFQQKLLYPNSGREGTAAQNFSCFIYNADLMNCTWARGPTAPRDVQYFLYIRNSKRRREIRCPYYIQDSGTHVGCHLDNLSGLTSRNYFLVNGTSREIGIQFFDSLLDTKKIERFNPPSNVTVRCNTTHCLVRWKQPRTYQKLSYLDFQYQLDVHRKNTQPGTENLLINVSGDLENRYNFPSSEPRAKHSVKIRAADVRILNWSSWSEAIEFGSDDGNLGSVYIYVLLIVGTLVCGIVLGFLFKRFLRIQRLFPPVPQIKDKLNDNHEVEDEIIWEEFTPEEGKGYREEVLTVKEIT
T1 sequence (P32927 17-897): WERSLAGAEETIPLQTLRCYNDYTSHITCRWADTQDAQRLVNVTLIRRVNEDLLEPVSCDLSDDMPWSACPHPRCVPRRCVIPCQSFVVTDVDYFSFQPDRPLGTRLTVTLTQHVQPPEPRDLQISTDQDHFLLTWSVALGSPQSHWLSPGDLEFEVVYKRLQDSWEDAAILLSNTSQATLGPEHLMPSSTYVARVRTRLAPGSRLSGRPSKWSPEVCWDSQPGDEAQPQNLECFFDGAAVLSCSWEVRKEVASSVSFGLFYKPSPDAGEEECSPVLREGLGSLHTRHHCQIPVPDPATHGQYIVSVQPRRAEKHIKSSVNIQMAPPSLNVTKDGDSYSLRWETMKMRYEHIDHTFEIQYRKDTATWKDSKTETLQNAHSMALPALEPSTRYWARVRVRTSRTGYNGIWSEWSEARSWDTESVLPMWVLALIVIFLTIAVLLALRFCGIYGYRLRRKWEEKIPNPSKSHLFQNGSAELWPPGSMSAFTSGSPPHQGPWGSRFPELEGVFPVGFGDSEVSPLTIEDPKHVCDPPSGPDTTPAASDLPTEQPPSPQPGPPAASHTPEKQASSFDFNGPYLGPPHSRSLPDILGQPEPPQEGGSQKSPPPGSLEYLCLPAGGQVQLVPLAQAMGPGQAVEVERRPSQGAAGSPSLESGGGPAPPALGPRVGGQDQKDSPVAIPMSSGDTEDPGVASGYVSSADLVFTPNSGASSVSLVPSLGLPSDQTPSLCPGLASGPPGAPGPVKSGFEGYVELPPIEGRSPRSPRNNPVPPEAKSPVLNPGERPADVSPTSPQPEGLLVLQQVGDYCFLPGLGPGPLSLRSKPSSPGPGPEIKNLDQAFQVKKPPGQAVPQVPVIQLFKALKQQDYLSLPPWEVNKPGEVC

[2] = biological target: T2, low affinity receptor (GM-CSFRα alone) (Homo sapiens, UniProt P15509); details: VonFeldt et al.; cited from earlier work
T2 sequence (P15509 23-400): T1 sequence (P15509 23-400)

Row | Substance | high affinity receptor binding [1] | low affinity receptor binding [2]
1 | amino acids 17-31 (the A helix) of GM-CSF: linear peptide analog of GM-CSF, VonFeldt et al. (NAIQEARRLLNLSRD; UniProt P04141 34-48, looked up, fragment) | inhibits | –
2 | peptide consisting of amino acids 54-78 (B and C helices): linear peptide analog of GM-CSF, VonFeldt et al. (CLQTRLELYKQGLRGSLTKLKGPLT; UniProt P04141 71-95, looked up, fragment) | – | inhibits
